The stoichiometry N is a count of units in the complex or per binding partner.

Drawing on PMC9501438, this text covers dH and stoichiometry N for 1 substance.

Test [1] addresses Arkadia 119 aa polypeptide (human) (UniProt Q6ZNA4). In words: ITC; Microcal PEAQ ITC, 25 °C; 75-200 uM Arkadia polypeptide in the cell, 0.75-2 mM UBCH5B from the syringe in 2 uL injections; single site-binding model. For orientation: ITC needs no label: the signal is the heat of the interaction.
For test [2], the target named is Arkadia RING 68 aa (human) (UniProt Q6ZNA4). The test is described as above.
Arkadia RING 68 aa (human), sequence (Q6ZNA4 927-994): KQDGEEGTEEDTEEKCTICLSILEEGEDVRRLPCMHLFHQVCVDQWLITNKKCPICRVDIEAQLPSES

UBCH5B, sequence (P62837 whole entry): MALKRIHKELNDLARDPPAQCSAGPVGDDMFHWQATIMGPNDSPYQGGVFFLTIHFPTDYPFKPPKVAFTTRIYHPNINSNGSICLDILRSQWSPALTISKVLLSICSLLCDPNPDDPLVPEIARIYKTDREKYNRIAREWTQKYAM
Arkadia 119 aa polypeptide (human), sequence (Q6ZNA4 876-994): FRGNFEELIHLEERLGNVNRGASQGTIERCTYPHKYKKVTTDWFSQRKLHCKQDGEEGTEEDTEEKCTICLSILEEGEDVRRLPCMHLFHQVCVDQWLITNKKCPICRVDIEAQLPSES

In the case of “UBCH5B (from UniProt P62837 1-147) (enzyme)”, in test [1], the dH is -4.7 kcal/mol and the stoichiometry N turned out to be 0.6. In test [2], this substance showed a dH of 3.1 kcal/mol and a stoichiometry N of 1.
